{"source": "patent US20050272093A1", "about": "(ROCKEFELLER UNIVERSITY, published 2005)", "biological_target": "T1, radiolabeled agitoxin2 (D20C conjugated with tritiated N-ethylmaleimide) (Leiurus quinquestriatus hebraeus, UniProt P46111 1-38)", "T1 construct": "mature", "test": "filter binding assay with tritiated agitoxin2"}
{"binder": "wild type kcsa K+ channel from Streptomyces lividans (other) MPPMLSGLLARLVKLLLGRHGSALHWRAAGAATVLLVIVLLAGSYLAVLAERGAPGAQLITYPRALWWSVETATTVGYGDLYPVTLWGRLVAVVVMVAGITSFGLVTAALATWFVGREQERRGHFVRHSEKAAEEAYTRTTRALHERFDRLERMLDDN", "values": [{"measurement": "binding result", "value": "no binding"}]}
